PMC3041740, “Interplay between HIV Entry and Transportin-SR2 Dependency” (Retrovirology, 2011)

T1: GST-TRN-SR2 (transportin-SR2) (UniProt Q9Y5L0-2 1-923)
T1 construct: transportin-SR2 (TRN-SR2, TNPO3, transportin 3); also called TNPO3; transportin 3; source: recombinant, expressed from pGEX-6P-2, purified using Glutathione Sepharose Resin
T1 sequence (looked up): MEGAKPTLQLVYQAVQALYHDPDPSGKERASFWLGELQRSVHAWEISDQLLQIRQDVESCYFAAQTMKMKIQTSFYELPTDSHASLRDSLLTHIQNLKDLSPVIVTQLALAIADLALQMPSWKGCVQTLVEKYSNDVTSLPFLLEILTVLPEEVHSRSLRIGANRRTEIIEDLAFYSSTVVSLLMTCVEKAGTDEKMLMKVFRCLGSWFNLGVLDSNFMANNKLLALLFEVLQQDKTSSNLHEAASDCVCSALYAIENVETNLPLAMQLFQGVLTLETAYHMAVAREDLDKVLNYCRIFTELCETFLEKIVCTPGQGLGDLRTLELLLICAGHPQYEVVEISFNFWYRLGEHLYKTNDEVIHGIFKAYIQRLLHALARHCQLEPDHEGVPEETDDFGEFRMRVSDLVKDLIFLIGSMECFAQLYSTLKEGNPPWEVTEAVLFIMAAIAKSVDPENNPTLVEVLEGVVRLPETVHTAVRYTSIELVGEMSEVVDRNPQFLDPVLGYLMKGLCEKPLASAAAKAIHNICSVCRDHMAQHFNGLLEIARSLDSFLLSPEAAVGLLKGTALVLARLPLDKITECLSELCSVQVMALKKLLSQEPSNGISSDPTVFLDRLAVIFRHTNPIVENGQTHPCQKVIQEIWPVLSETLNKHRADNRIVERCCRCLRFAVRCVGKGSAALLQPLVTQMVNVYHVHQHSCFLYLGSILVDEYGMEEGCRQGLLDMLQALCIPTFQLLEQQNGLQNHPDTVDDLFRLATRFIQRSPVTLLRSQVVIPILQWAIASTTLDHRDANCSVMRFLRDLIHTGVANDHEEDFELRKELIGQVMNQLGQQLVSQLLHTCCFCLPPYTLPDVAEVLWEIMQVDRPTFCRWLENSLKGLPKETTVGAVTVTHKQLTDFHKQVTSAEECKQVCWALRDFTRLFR


Biological target: T1, GST-TRN-SR2 (transportin-SR2)
Experiment: AlphaScreen or HTRF; 10 nM GST-TRN-SR2 titrated with 1 to 150 nM His6-tagged protein; glutathione donor and nickel-chelate acceptor beads; 25 mM Tris/HCl pH 7.4, 150 mM NaCl, 1 mM MgCl2, 0.1% Tween-20, 0.1% BSA; 1 h at 4°C, then 1.5 h at room temperature with beads; apparent Kd
Details: both partners purified

Binder	Kd [nM]
MLV integrase, C-terminally His6-tagged (enzyme, integrase (IN) of murine leukemia virus (MLV); also called His6-tagged MLV IN; not shown: His6, C-terminal, kept) IENSSPYTSEHFHYTVTDIKDLTKLGAIYDKTKKYWVYQGKPVMPDQFTFELLDFLHQLTHLSFSKMKALLERSHSPYYMLNRDRTLKNITETCKACAQVNASKSAVKQGTRVRGHRPGTHWEIDFTEIKPGLYGYKYLLVFIDTFSGWIEAFPTKKETAKVVTKKLLEEIFPRFGMPQVLGTDNGPAFVSKVSQTVADLLGIDWKLHCAYRPQSSGQVERMNRTIKETLTKLTLATGSRDWVLLLPLALYRARNTPGPHGLTPYEILYGAPPPLVNFPDPDMTRVTNSPSLQAHLQALYLVQHEVWRPLAAAYQEQLDRPVVPHPYRVGDTVWVRRHQTKNLEPRWKGPYTVLLTTPTALKVDGIAAWIHAAHVKAADPGGGPSSRLTWRVQRSQNPLKIRLTREAP	17.5 ± 0.5
HIV-1 integrase, C-terminally His6-tagged (enzyme) FLDGIDKAQEEHEKYHSNWRAMASDFNLPPVVAKEIVASCDKCQLKGEAMHGQVDCSPGIWQLDCTHLEGKVILVAVHVASGYIEAEVIPAETGQETAYFLLKLAGRWPVKTVHTDNGSNFTSTTVKAACWWAGIKQEFGIPYNPQSQGVIESMNKELKKIIGQVRDQAEHLKTAVQMAVFIHNFKRKGGIGGYSAGERIVDIIATDIQTKELQKQITKIQNFRVYYRDSRDPVWKGPAKLLWKGEGAVVIQDNSDIKVVPRRKAKIIRDYGKQMAGDDCVASRQDED	36.3 ± 2.3
